Measurements as given in PMC11508087 (PLOS Pathogens, 2024).

molecular target: FMDV O/18074 146S antigen (Foot-and-mouth disease virus serotype …, strain); experiment: not given; settings: not given

Binder | binding result
pOA-4 (antibody, V domains shown) VH: EEKLVESGGGLVRPGGSLRLSCVGSGFPWNTYSVRWVRQAPMKGLEFVAYIFKNDNDRDYASSVKGRFTISRDNSQNTAYLQMNNLRTEDTAHYYCLLANKYWGPGVEVVVSS VL: AVVLTQTPVSLTVSVGEPASISCSSSQSLVEDDGSSVLNWYLQKPGQSPQRLIYSAVGRDTGVPDRFSGSGSGTEFTLKISRVEAEDAGVYYCQQSRFSTSFGAGSKLELK | binds
pOA-5 (antibody, V domains shown) VH: EEKLVESGGGLVQPGGSLRLSCVGSGFIFSSGEITWVRQAPGKGLEWLAYTTIRGTSKYYADSVGGRFTISRDDSQNTATLQMNSLRIEDTARYYCARGKEDAVQGYYGKALDLWGPGIGVVVSS VL: SSQLTQPPGVSVSLGGTATITCQGGSFGRYYSHWYKQRPGQAPILVIYDDAKRPAGIPDRFSGSTSGNSVTLTITGAQAEDEADYYCQSVDRSGNAKFGGGTHLTVL | binds
pOA-11 (antibody, V domains shown) VH: EEKVVESGGGLVRPGESLRLSCVAEGVEFGRRSVRWVRQRPGKGLEFVIYMFNDAQSVDIADSVKGRFTISRDNSQNTAYLQMNRLTVEDTGRYFCLTANKWFGPGVEVVVSS VL: AIVLTQTPLSLSVTPGESVSISCKSTKSVLDTDGTIVLNWYLQRPGQAPQRVIWSTFYRETGVPDRFTGSGSDTDFTLHISRVEAEDVGVYYCQQSRESTSFGAGTKLDLK | binds
pOA-12 (antibody, V domains shown) VH: EEKLVESGGGLVQPGGSLTLSCVGSGFYFSNYEIVWVRQVRGGGLEWISYVSNGGARTSYALSVKGRFTIFRDNSRNTVDLHLNNLRIEDTARYYCVGGGQCLGDNCYSMALWGPGVEVFVSS VL: QTVIQEPAMSVSLGGTVTLTCAFTSGSVTKTNYPSWFQQTPGQPPRQLIYHTDNQATGVPSRFSGAISGNKATFTITGAQAEDEADYFCCLYRGTTNVPFGGGTRLTVL | binds
pOA-14 (antibody, V domains shown) VH: EERLVESGGGLVQPGGSLKLSCVASGFDFQKYMINWVRQAPGKGLEWLALIWNDGKQRYYVESAHMRFTISRNNSQNTAYLEMNRLRVEETARYYCARGWGVEKMDLWGPGVEVAVSS VL: QTVIQEPAMTVSLGGTVTLTCGFSSGSVTGTKYPNWYQQTPGQRPRLLIYSTKIRPTGVPSRFSGAISGNKATLTIMGAGAEDEADYYCSLNQNYKIIFGAGTHLIVL | binds
pOA-15 (antibody, V domains shown) VH: EEKLVESGGGLVQPGGSLRLSCVGSGFDLSDYGFSWVRQAPGKGLETMAFIDSRTSSFTTYTVIGVKGRFTIDNDNALQLNSLTSEDTARYFCARGRGSNGPKGLIGAYGMDLWGPGVEVVVSS VL: QIVIQEPAMSVSLGGTVTLTCAYRSGSVTIKDGPNWYQQTPGQPPRQLIYNTNSRPTGVPSRFSGAISGNKATLTIAGAQAEDEAEYFCILYKNLEEVRFGDGTHLSVV | binds
pOA-16 (antibody, V domains shown) VH: EEKLVESGGGLVQPGGSLTLSCVGSGFDFSLYNMIWVRQAPGKGLEWLAGIWESGVQDSYPESMKGRFTISRDNSQNTAYLKIHILGMEDTARYYCASGARCGEDRCIDLWGPGVEVVVSS VL: QTVIQEPAMKVSPGGTVTLSCAFSSGSVTTSNYPSWFQHTPGQPPRLLMYRTSYRPTGVNSRFSGAISGNKATLTITGAQTTDEADYYCALFLNTITIPFGGGTHLTVL | binds
pOA-18 (antibody, V domains shown) V domain 1: EEKLVESGGGLVQPGGSLRLSCVGSGFTFTNYEIVWVRQAPGRGPEWISYISNGGARKAYATSVRGRFSISRDNSRNTVDLQLNNLKIEDTGRYYCVGGGHCLGDNCYSLSLWGPGVELVVSS V domain 2: QTVIQEPAMSVSPGGTVTLTCAFYSGSVTSENYPSWFQQTSGQPPREVIYMTDNRPTGVPDRFSGSISGNKATLTITGAQAEDEADYFCMLYKGTTNVPFGGGTHLTVL | binds

molecular target: T1, FMDV O/Tibet/99 146S antigen (Foot-and-mouth disease virus serotype …, strain); experiment: BLI; RED96; […] (10 μg/ml) […]; 0.01 M PBS, 0.1% BSA, 0.02% Tween 20; global fit; settings: both partners purified
T1 construct: copies: + + +

Binder | Kd [nM]
pOA-1 (antibody, V domains shown) VH: EENVVESGGGLVRPGGSLRLSCIFSGFTFSTYSVRWVRQAPGKGLEFLTYIFKNVGDIDTADSVKGRFTISRDNSQNTAYLQMNSLRPEDTARYFCLVANKYWGPGVEVLVSS VL: AIVLTQSPLSLSVSPGDSASISCRSSQSLVEDDGSSVLNWYLQRPGQSPQRLIYSAVGRDAGVPDRFSGSGSGTDFTLTISGVEAEDLGVYYCQQSKVSTTFGAGSKLDLK | 0.04
